Measurements taken from article PMC8403554 (Cell, 2019).
Each block holds one binder with its values, some of them ahead of it.

B2: tetrameric βI-tryptase (insect cells) (enzyme)
chain: not shown

Legend:
[1] = biological target: B2; assay: crystal structure
SEC = biological target: the molecule itself; assay: SEC
[2] = biological target: human βI-tryptase monomer (Homo sapiens, beta-I allele of TPSAB1, UniProt Q15661); assay: SPR
Sequence of human βI-tryptase monomer (Q15661 31-275): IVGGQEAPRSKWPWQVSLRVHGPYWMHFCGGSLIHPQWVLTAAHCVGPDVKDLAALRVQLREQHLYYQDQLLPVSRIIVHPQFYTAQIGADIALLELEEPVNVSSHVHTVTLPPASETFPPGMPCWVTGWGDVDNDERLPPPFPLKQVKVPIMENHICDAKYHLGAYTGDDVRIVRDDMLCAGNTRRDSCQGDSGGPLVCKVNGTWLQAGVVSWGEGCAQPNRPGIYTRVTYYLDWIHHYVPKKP

binding result [1]: binds
B1: soybean trypsin inhibitor (natural protein, UniProt P01070 25-205, looked up)
chain: DFVLDNEGNPLENGGTYYILSDITAFGGIRAAPTGNERCPLTVVQSRNELDKGIGTIISSPYRIRFIAEGHPLSLKFDSFAVIMLCVGIPTEWSVVEDLPEGPAVKIGENKDAMDGWFRLERVSDDEFNNYKLVFCPQQAEDDKCGDIGISIDHDDGTRRLVVSKNKPLVVQFQKLDKESL

Binder: B2
stoichiometry N (SEC): 4

fold improvement in binding affinity (Kd) over the parental 31A clone [2]: ~10 fold
B3: humanized 31A.v11 IgG4 anti-tryptase antibody (antibody, V domains shown)
VH: EVQLVESGGGLVQPGGSLRLSCAASGFTFSDYGMVWVRQAPGKGLEWVAFISSGSSTVYYADTMKGRFTISRDNSKNTLYLQMNSLRAEDTAVYYCTRRNYDDWYFDVWGQGTLVTVSS
VL: DIQMTQSPSSLSASVGDRVTITCSASSSVTYMYWYQQKPGKSPKPWIYRTSDLASGVPSRFSGSGSGTDFTLTISSLQPEDFATYYCQHYHSYPLTFGQGTKVEIK
